Patent publication US20220090012A1 (CRISPR THERAPEUTICS, published 2022)

Biological target: T1, recombinant biotinylated human BCMA (human, UniProt Q02223 1-54, biotinylated (site not stated); detected with streptavidin-APC)
T1 construct: Staining reagent; also called recombinant biotinylated BCMA/streptavidin-APC conjugate
T1 sequence (looked up): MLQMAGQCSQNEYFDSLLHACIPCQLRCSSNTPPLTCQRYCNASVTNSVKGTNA
Assay: flow cytometry; edited T cells carrying the CAR stained with recombinant biotinylated human BCMA and streptavidin-APC
Source text: Flowcytometry was used to verify the editing for TRAC, β2M and the insertion and expression of anti-BCMA CAR. Briefly, about one week post electroporation, cells were stained with anti-human TCR, anti-human β2M and recombinant biotinylated human BCMA/streptavidin-APC to assess the levels of editing for TRAC and β2M, and insertion of the nucleotide sequence encoding anti-BCMA CAR.
TRAC−/β2M−, TRAC−/β2M−/Reg-1−, TRAC−/β2M−/TGFBRII− and TRAC−/β2M−/Reg-1−/TGFBRII− anti-BCMA CAR+ T-cells show consistent rates of TCR and β2M disruptions at >90% and >60% rates, respectively as determined by flow cytometry (FIGS. 23A and 23B). Anti-BCMA CAR expression was measured flow cytometrically by determining the percentage of cells that bound recombinant biotinylated BCMA/streptavidin-APC conjugate. All the conditions including TRAC−/β2M−, TRAC−/β2M−/Reg-1−, TRAC−/β2M−/TGFBRII− and TRAC−/β2M−/Reg-1−/TGFBRII− anti-BCMA CAR+ T-cells show consistent rates of CAR insertion (>70%), while the unedited RNP− T-cells have no detectable staining for anti-BCMA CAR (FIG. 23C).

B1: anti-BCMA CAR (BCMA CAR amino acid sequence) (other)
chain: QVQLVQSGAELKKPGASVKVSCKASGNTLTNYVIHWVRQAPGQRLEWMGYILPYNDLTKYSQKFQGRVTITRDKSASTAYMELSSLRSEDTAVYYCTRWDWDGFFDPWGQGTTVTVSSGGGGSGGGGSGGGGSEIVMTQSPATLSVSPGERASISCRASQSLVHSNGNTHLHWYQQRPGQAPRLLIYSVSNRFSEVPARFSGSGSGTDFTLTISSVESEDFAVYYCSQTSHIPYTFGGGTKLEIKSAAAFVPVFLPAKPTTTPAPRPPTPAPTIASQPLSLRPEACRPAAGGAVHTRGLDFACDIYIWAPLAGTCGVLLLSLVITLYCNHRNRKRGRKKLLYIFKQPFMRPVQTTQEEDGCSCRFPEEEEGGCELRVKFSRSADAPAYQQGQNQLYNELNLGRREEYDVLDKRRGRDPEMGGKPRRKNPQEGLYNELQKDKMAEAYSEIGMKGERRRGKGHDGLYQGLSTATKDTYDALHMQALPPR
notes: also called anti-BCMA chimeric antigen receptor
- binding result: binds
